The record followed here is patent US8236753 (BRIGHAM AND WOMEN S HOSPITAL, dated 2012).

The labels stand for the following.
B1: wild-type RAP-D3 (third domain of the receptor-associated protein, residues 216-323) (ligand, human)
chain: GAEFEEPRVIDLWDLAQSANLTDKELEAFREELKHFEAKIEKHNHYQKQLEIAHEKLRHAESVGDGERVSRSREKHALLEGRTKELGYTVKKHLQDLSGRISRARHNEL
notes: range 216-323; Expressed in E. coli as a GST fusion, released by TEV protease, monomer isolated by size exclusion; The range 216-323 counts on the mature RAP protein, not on the precursor; also called RAP-D3 WT; RAPD3_WT
B3: LA3-4 module pair of the LDLR (LDL receptor type-A repeats 3 and 4) (receptor)
chain: not shown
notes: domain: LA3-4 module pair; also called two-repeat fragment of the LDL receptor; LA3-4 repeat pair

In test [1] the target is B3. The test is described as follows: ITC, RAP-D3 titrated into LA3-4, 20 mM HEPES pH 7.3, 5 mM CaCl2, 25 C, 150 mM NaCl. Set-up: ΔH: unit not given here. On the procedure: (§1) RAP-D3 titrations were performed in 20 mM HEPES, pH 7.3, 50-150 mM NaCl, 5 mM CaCl_2 at 25° C. using a VP-ITC calorimeter (MicroCal Inc., Northampton, Mass.) in a 1.3 mL reaction vessel. A RAP-D3 stock solution (132-178 μM) was added in 6-8 μL increments to LA3-4 (20-25 μM). Calorim-

Test [2] concerns the target B3. The test is described as follows: ITC, RAP-D3 titrated into LA3-4, 20 mM HEPES pH 7.3, 5 mM CaCl2, 25 C, 50 mM NaCl. Also on record: ΔH: unit not given here. The method, then:
as §1

Test [3] addresses B3. The test is described as follows: ITC at neutral pH. On the procedure:
as §1

Test [4] addresses B1. The test is described as follows: ITC, RAP-D3 titrated into LA3-4, 20 mM HEPES pH 7.3, 5 mM CaCl2, 25 C, 150 mM NaCl. Set-up: ΔH: unit not given here. On the procedure:
as §1

The target in test [5] is B1. The test is described as follows: ITC, RAP-D3 titrated into LA3-4, 20 mM HEPES pH 7.3, 5 mM CaCl2, 25 C, 50 mM NaCl. Also on record: ΔH: unit not given here. On the procedure: as §1
For test [6], the target named is B3. The test is described as follows: ITC, RAP-D3 titrated into LA3-4, 20 mM HEPES pH 7.3, 5 mM CaCl2, 25 C, 100 mM NaCl. Set-up: ΔH: unit not given here. The method, then:
as §1

The target of test [7] is B3. The test is described as follows: ITC, RAP-D3 titrated into LA3-4, 20 mM HEPES pH 7.3, 5 mM CaCl2, 25 C, 100 mM NaCl; 100 mM NaCl. The method, then: as §1

As for B1, the ΔH in test [1] was -6.8; in test [2] it was -9.1.

B2: RAP-D3 [H257F/H259F] (ligand)
chain: GAEFEEPRVIDLWDLAQSANLTDKELEAFREELKHFEAKIEKFNFYQKQLEIAHEKLRHAESVGDGERVSRSREKHALLEGRTKELGYTVKKHLQDLSGRISRARHNEL
notes: The entry is printed as ENLYFQG followed by the 108 residues; also called RAPD3_H257, 259F; RAP-D3 H257,259F
As to B2, in test [2], binding was put at a Kd of 850 nM and the ΔH is -8.6. In test [3], the “fold difference in affinity against wild-type RAP-D3” value (“fold difference in affinity” for short) was no more than 2 fold.
In the case of B3, the values for the Kd in test [4] and in test [5] were 1170 nM and 480 nM, respectively.

B4: RAP-D3 [H268F/H290F] (ligand)
chain: GAEFEEPRVIDLWDLAQSANLTDKELEAFREELKHFEAKIEKHNHYQKQLEIAFEKLRHAESVGDGERVSRSREKFALLEGRTKELGYTVKKHLQDLSGRISRARHNEL
notes: also called RAPD3_H268, 290F
Consider B4, for which, in test [2], the Kd turned out to be 1160 nM and the ΔH is -9.3. Also, the “fold difference in affinity” value in test [3] was no more than 2 fold.

B5: RAP-D3-quad (RAP-D3 H257F/H259F/H268F/H290F) (ligand)
chain: GAEFEEPRVIDLWDLAQSANLTDKELEAFREELKHFEAKIEKFNFYQKQLEIAFEKLRHAESVGDGERVSRSREKFALLEGRTKELGYTVKKHLQDLSGRISRARHNEL
notes: also called RAP-D3 Quad H:F; RAPD3_H257, 259, 268, 290F
Consider B5, for which, in test [6], the affinity, expressed as Kd, was 850 nM and the ΔH is -5.4. Moreover, the “fold difference in affinity” value in test [3] is no more than 2 fold. The Ka in test [7] stood at 1.2e+06 M⁻¹.
